Here are results for 9 variants from IntAct's records for PubMed 17699754.

B1: DnaA initiator-associating protein DiaA (Escherichia coli (strain K12)), P66817 (parent)
chain: MQERIKACFTESIQTQIAAAEALPDAISRAAMTLVQSLLNGNKILCCGNGTSAANAQHFAASMINRFETERPSLPAIALNTDNVVLTAIANDRLHDEVYAKQVRALGHAGDVLLAISTRGNSRDIVKAVEAAVTRDMTIVALTGYDGGELAGLLGPQDVEIRIPSHRSARIQEMHMLTVNCLCDLIDNTLFPHQDD
partner: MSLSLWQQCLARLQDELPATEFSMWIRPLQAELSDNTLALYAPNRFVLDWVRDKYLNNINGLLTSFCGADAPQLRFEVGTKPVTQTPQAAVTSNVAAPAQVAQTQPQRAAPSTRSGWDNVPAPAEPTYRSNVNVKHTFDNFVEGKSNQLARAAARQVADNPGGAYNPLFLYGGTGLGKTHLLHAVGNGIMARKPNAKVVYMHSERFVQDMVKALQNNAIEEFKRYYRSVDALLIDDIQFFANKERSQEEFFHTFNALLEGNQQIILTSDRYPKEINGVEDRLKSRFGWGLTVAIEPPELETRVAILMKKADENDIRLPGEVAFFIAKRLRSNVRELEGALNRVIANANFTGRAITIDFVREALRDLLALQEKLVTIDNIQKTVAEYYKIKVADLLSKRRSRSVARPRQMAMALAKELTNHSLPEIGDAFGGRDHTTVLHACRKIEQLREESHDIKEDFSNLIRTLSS

The first experiment covers variants of B1. Particulars: with dnaa_ecoli dnaA.
Regarding MQERIKACFTESIQTQIAAAEALPDAISRAAMTLVQSLLNGNKILCCGNGTSAANAQHFAASMINRFETERPSLPAIALNTDDVVLTAIANDRLHDEVYAKQVRALGHAGDVLLAISTRGNSRDIVKAVEAAVTRDMTIVALTGYDGGELAGLLGPQDVEIRIPSHRSARIQEMHMLTVNCLCDLIDNTLFPHQDD [N83D], the “effect of a mutation on the interaction” value is recorded as “decreasing interaction”. With MQERIKACFTESIQTQIAAAEALPDAISRAAMTLVQSLLNGNKILCCGNGTSAANAQHFAASMINRFETERPSLPAIALNTDNVVLTAIANDRLHDEVYAKQVRALGHAGDVLLAISTRGNSRDIVKAVEAAVTRDMTIVALTGYDGGELAGLLGPQDVEIRIPSHRSARIQEMHMLTVNCLCDLIDNTAFPHQDD [L190A], the “effect of a mutation on the interaction” value is “disrupting interaction”. Take MQERIKACFTESIQTQIAAAEALPDAISRAAMTLVQSLLNGNKILCCGNGTSAANAQHFAASMINRFETERPSLPAIALNTDNVVLTAIANDRLHDEVYAKQVRALGHAGDVLLAISTRGNSRDIVKAVEAAVTRDMTIVALTGYDGGELAGLLGPQDVEIRIPSHRSARIQEMHMLTVNCLCDLIDNTPFPHQDD [L190P]: the “effect of a mutation on the interaction” value is reported as “disrupting interaction”. On the same count and under the same terms, the same measure for MQERIKACFTESIQTQIAAAEALPDAISRAAMTLVQSLLNGNKILCCGNGTSAANAQHFAASMINRFETERPSLPAIALNTDNVVLTAIANDRLHDEVYAEQVRALGHAGDVLLAISTRGNSRDIVKAVEAAVTRDMTIVALTGYDGGELAGLLGPQDVEIRIPSHRSARIQEMHMLTVNCLCDLIDNTLFPHQDD [K101E]: “decreasing interaction”. The same measure, in the same setting: the same measure for MQERIKACFTESIQTQIAAAEALPDAISRAAMTLVQSLLNGNKILCCGNGTSAANAQHFAASMINRFETERSSLPAIALNTDNVVLTAIANDRLHDEVYAKQVRALGHAGDVLLAISTRGNSRDIVKAVEAAVTRDMTIVALTGYDGGELAGLLGPQDVEIRIPSHRSARIQEMHMLTVNCLCDLIDNTLFPHQDD [P72S]: “decreasing interaction”; for MQERIKACFTESIQTQIAAAEALPDAISRAAMTLVQSLLNGNKILCCGNGTSAANAQHFAASMINRFETERASLPAIALNTDNVVLTAIANDRLHDEVYAKQVRALGHAGDVLLAISTRGNSRDIVKAVEAAVTRDMTIVALTGYDGGELAGLLGPQDVEIRIPSHRSARIQEMHMLTVNCLCDLIDNTLFPHQDD [P72A]: “decreasing interaction”. For the variant MQERIKACFTESIQTQIAAAEALPDAISRAAMTLVQSLLNGNKILCCGNGTSAANAQHFAASMINRFETERPSLPAIALNTDNVVLTAIANDRLHDEVYAKQVRALGHAGDVLLAISTRGNSRDIVKAVEAAVTRDMTIVALTGYDGGELAGLLGPQDVEIRIPSHRSARIQEMHMLTVNCLCDLIDNTLLPHQDD [F191L], the “effect of a mutation on the interaction” value is listed as “disrupting interaction”. Still for that read-out and setting: the result for MQERIKACFTESIQTQIAAAEALPDAISRAAMTLVQSLLNGNKILCCGNGTSAANAQHFAASMINRFETERPSLPAIALNTDNVVLTAIANDRLHDEVYAKQVRALGHAGDVLLAISTRGNSRDIVKAVEAAVTRDMTIVALTGYDGGELAGLLGPQDVEIRIPSHRSARIQEMHMLTVNCLCDLIDNTLSPHQDD [F191S] reads “disrupting interaction”.

The variants in another experiment derive from B1. As to conditions: with dnaa_ecoli dnaA. The source holds these as a separate data set.
On to MQERIKACFTESIQTQIAAAEALPDAISRAAMTLVQSLLNGNKILCCGNGTFAANAQHFAASMINRFETERPSLPAIALNTDNVVLTAIANDRLHDEVYAKQVRALGHAGDVLLAISTRGNSRDIVKAVEAAVTRDMTIVALTGYDGGELAGLLGPQDVEIRIPSHRSARIQEMHMLTVNCLCDLIDNTLFPHQDD [S52F], for which the “effect of a mutation on the interaction” value is reported as “decreasing interaction”.
